Experimental data from paper PMC9482650, “Quantitative fragmentomics allow affinity mapping of interactomes” (Nature Communications, 2022).
Changes are numbered by the printed parent chain.

T1: NHERF3_3, Q5T2W1
T1 sequence (Q5T2W1 238-333, limits assumed, looked up): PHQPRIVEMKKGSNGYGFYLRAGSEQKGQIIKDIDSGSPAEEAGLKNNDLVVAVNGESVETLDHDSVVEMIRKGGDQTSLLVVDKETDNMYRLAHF

T2: LIN7B, Q9HAP6
T2 sequence (Q9HAP6 88-185, limits assumed, looked up): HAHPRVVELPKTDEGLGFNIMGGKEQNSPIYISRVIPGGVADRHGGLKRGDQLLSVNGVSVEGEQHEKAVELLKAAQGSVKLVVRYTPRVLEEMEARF

T3: LIN7C, Q9NUP9
T3 sequence (Q9NUP9 88-185, limits assumed, looked up): T2 sequence (Q9HAP6 88-185, limits assumed, looked up) with A2S, D13E, V35I, V40I, Q65H, S79K, R89K, A96S

T4: SNTA1, Q13424
T4 sequence (Q13424 82-180, limits assumed, looked up): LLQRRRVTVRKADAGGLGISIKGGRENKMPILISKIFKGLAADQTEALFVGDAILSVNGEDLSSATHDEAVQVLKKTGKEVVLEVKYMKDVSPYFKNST

T5: DLG3_3, Q92796
T5 sequence (Q92796 374-475, limits assumed, looked up): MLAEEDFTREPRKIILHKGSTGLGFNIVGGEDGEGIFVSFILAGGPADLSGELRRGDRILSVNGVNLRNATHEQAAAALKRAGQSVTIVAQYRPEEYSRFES

T6: RHPN1, Q8TCX5
T6 sequence (Q8TCX5 508-602, limits assumed, looked up): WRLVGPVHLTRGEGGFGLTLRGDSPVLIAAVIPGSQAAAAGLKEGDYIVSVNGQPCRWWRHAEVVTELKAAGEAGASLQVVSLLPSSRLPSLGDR

T7: APBA1_2, Q02410
T7 sequence (Q02410 742-832, limits assumed, looked up): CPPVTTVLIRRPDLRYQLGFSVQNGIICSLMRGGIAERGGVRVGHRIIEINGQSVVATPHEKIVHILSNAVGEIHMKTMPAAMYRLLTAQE

T8: HTRA3, P83110
T8 sequence (P83110 354-453, limits assumed, looked up): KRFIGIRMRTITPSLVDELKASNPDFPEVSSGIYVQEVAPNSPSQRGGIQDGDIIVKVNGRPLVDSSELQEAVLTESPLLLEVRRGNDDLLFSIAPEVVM


Assays:
Experiment in all cases: holdup assay
Set-up in all cases: key: below the threshold = too weak to quantify, mostly under pKd 3.1 to 4
Details in all cases: plain residues with an end cap or a label only (N-terminal biotin on a linker: ado-ado)
[1] = target: T1, NHERF3_3, Q5T2W1
[2] = target: NHERF4_4, Q86UT5
NHERF4_4, Q86UT5, sequence (Q86UT5 464-550): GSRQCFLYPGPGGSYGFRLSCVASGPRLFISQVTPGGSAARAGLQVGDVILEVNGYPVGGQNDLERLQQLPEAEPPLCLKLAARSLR

[3] = target: PARD3_3, Q8TEW0
PARD3_3, Q8TEW0, sequence (Q8TEW0 582-685): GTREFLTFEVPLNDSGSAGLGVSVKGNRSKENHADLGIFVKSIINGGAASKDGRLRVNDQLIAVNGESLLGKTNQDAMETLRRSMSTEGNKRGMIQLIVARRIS

[4] = target: T2, LIN7B, Q9HAP6
[5] = target: T3, LIN7C, Q9NUP9
[6] = target: FRMPD3, Q5JV73
FRMPD3, Q5JV73, sequence (Q5JV73 12-100): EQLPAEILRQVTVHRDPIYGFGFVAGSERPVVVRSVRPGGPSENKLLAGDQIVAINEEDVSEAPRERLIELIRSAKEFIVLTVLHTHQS

[7] = target: MAGI1_2, Q96QZ7
MAGI1_2, Q96QZ7, sequence (Q96QZ7 456-580): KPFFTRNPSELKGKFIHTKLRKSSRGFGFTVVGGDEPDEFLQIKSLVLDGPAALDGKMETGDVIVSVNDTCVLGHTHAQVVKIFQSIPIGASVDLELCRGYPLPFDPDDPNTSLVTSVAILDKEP

[8] = target: Inadl_1, Q8NI35
Inadl_1, Q8NI35, sequence (Q8NI35 113-229): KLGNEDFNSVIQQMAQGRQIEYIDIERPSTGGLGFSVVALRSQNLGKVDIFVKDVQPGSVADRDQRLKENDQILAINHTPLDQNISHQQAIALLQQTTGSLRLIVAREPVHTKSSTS

[9] = target: DLG4_3, P78352
DLG4_3, P78352, sequence (P78352 306-403): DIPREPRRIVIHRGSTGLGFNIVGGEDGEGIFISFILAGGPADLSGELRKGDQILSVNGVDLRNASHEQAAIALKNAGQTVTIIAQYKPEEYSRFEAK

[10] = target: MAGI3_2, Q5TCQ9
MAGI3_2, Q5TCQ9, sequence (Q5TCQ9 398-503): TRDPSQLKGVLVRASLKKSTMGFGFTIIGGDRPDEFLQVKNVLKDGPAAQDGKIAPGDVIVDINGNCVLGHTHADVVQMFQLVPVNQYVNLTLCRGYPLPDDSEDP

[11] = target: DLG2_2, Q15700
DLG2_2, Q15700, sequence (Q15700 189-283): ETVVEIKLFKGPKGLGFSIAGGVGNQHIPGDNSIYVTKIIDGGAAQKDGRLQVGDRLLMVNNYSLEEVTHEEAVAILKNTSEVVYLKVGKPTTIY

[12] = target: DLG1_1, Q12959
[13] = target: ARHGEF12, Q9NZN5-2
ARHGEF12, Q9NZN5-2, sequence (Q9NZN5 other isoform, or with tags, fused parts or gaps): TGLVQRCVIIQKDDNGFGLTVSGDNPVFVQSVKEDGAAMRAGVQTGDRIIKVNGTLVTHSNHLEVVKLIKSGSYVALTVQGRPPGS

[14] = target: LNX1_3, Q8TBB1
LNX1_3, Q8TBB1, sequence (Q8TBB1 500-596): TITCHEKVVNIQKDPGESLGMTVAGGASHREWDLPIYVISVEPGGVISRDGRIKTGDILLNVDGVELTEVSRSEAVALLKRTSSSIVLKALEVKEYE

[15] = target: LNX1_2, Q8TBB1
LNX1_2, Q8TBB1, sequence (Q8TBB1 371-470): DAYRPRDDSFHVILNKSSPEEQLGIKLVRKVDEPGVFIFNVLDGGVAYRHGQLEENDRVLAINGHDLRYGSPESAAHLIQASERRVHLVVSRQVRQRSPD

[16] = target: FRMPD2_1, Q68DX3
FRMPD2_1, Q68DX3, sequence (Q68DX3 770-861): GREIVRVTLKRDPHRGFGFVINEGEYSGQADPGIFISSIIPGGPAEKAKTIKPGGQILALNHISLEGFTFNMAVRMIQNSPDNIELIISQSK

[17] = target: MAGI2_3, Q86UL8
MAGI2_3, Q86UL8, sequence (Q86UL8 600-682): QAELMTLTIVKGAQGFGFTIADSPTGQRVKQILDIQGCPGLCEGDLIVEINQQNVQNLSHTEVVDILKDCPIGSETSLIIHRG

[18] = target: Inadl_6, Q8NI35
Inadl_6, Q8NI35, sequence (Q8NI35 1058-1167): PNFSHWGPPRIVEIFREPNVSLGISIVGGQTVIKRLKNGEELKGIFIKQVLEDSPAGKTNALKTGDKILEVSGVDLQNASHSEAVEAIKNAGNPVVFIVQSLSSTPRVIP

[19] = target: T4, SNTA1, Q13424
[20] = target: GRIP2_3, Q9C0E4
GRIP2_3, Q9C0E4, sequence (Q9C0E4 238-339): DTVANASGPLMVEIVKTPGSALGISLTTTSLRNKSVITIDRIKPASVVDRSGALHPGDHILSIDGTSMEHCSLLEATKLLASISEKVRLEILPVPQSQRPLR

[21] = target: Inadl_4, Q8NI35
Inadl_4, Q8NI35, sequence (Q8NI35 547-651): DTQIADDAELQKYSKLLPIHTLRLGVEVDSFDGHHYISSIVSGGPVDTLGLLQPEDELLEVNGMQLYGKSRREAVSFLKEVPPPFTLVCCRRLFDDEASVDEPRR

[22] = target: GORASP1, Q9BQQ3
GORASP1, Q9BQQ3, sequence (Q9BQQ3 1-208): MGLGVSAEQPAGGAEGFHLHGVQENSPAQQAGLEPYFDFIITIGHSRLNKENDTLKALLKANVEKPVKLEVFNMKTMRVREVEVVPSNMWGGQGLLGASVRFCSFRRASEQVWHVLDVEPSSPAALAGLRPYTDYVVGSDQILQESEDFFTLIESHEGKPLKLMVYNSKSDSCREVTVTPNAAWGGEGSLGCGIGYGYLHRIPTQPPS

[23] = target: T5, DLG3_3, Q92796
[24] = target: Inadl_10, Q8NI35
Inadl_10, Q8NI35, sequence (Q8NI35 1673-1763): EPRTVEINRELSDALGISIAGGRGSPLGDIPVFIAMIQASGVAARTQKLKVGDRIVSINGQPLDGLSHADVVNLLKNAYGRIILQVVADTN

[25] = target: FRMPD2_2, Q68DX3
FRMPD2_2, Q68DX3, sequence (Q68DX3 944-1038): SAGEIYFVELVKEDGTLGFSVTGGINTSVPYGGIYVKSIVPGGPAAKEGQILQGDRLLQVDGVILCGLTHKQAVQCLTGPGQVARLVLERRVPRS

[26] = target: T6, RHPN1, Q8TCX5
[27] = target: T7, APBA1_2, Q02410
[28] = target: T8, HTRA3, P83110
[29] = target: MAST2, Q6P0Q8
MAST2, Q6P0Q8, sequence (Q6P0Q8 1099-1202): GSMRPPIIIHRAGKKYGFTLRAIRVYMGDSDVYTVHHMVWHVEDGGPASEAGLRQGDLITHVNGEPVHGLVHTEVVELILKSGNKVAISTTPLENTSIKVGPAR

[30] = target: Inadl_8, Q8NI35
Inadl_8, Q8NI35, sequence (Q8NI35 1425-1530): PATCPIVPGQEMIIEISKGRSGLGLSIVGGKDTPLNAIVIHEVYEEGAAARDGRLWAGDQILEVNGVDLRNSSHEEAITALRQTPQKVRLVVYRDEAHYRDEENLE

[31] = target: GOPC, Q9HD26

Binder | pKd [1] | pKd [2] | pKd [3] | pKd [4] | pKd [5] | pKd [6] | pKd [7] | pKd [8] | pKd [9] | pKd [10] | pKd [11] | pKd [12] | pKd [13] | pKd [14] | pKd [15] | pKd [16] | pKd [17] | pKd [18] | pKd [19] | pKd [20] | also measured
KAEEKPPSKV [SCN4B, Q8IWT1] | below the threshold | below the threshold | below the threshold | below the threshold | below the threshold | below the threshold | below the threshold | below the threshold | below the threshold | below the threshold | below the threshold | below the threshold | below the threshold | below the threshold | below the threshold | below the threshold | 3.48 | below the threshold | below the threshold | below the threshold | pKd [21]: below the threshold; pKd [22]: below the threshold; pKd [23]: below the threshold; pKd [24]: below the threshold; pKd [25]: below the threshold; pKd [26]: below the threshold; pKd [27]: 3.85; pKd [28]: below the threshold; pKd [29]: below the threshold; pKd [30]: 3.98; pKd [31]: below the threshold
KKTPVSRSHL [SLC22A3, O75751] | below the threshold | below the threshold | below the threshold | below the threshold | below the threshold | below the threshold | 3.62 | below the threshold | below the threshold | below the threshold | below the threshold | below the threshold | 4.2 | below the threshold | below the threshold | below the threshold | below the threshold | below the threshold | 3.53 | below the threshold | pKd [21]: below the threshold; pKd [22]: below the threshold; pKd [23]: below the threshold; pKd [24]: below the threshold; pKd [25]: below the threshold; pKd [26]: below the threshold; pKd [27]: 3.77; pKd [28]: below the threshold; pKd [29]: 4.69; pKd [30]: below the threshold; pKd [31]: 3.81
HDDYFYHDEL [RCN2, Q14257] | below the threshold | below the threshold | 3.96 | below the threshold | below the threshold | below the threshold | below the threshold | below the threshold | 3.53 | below the threshold | below the threshold | below the threshold | below the threshold | below the threshold | below the threshold | below the threshold | below the threshold | below the threshold | 3.6 | below the threshold | pKd [21]: below the threshold; pKd [22]: below the threshold; pKd [23]: below the threshold; pKd [24]: below the threshold; pKd [25]: below the threshold; pKd [26]: below the threshold; pKd [27]: 3.98; pKd [28]: below the threshold; pKd [29]: 4.85; pKd [30]: below the threshold; pKd [31]: 3.59
